What is called Kd is the equilibrium constant for the complex coming apart. What is called koff is a measure of how fast the partners let go of each other. High values mean a short-lived complex, low ones a long-lived complex. One may read the kon as a measure of how fast the partners come together. A high value points to faster complex formation.

Among the data in US20240124597A1 (Bristol-Myers Squibb, published 2024) are Kd, koff and kon values, retold here.

B1: Y12XX-hz14 (antibody, human IgG1, kappa, V domains shown)
VH: QVQLVQSGAEVKKPGSSVKVSCKASGYAFTSYWMHWVRQAPGQGLEWMGQINPTTGRSQYNEKFKTRVTITADKSTSTAYMELSSLRSEDTAVYYCARWGLQPFAYWGQGTLVTVSS
VL: DIQMTQSPSSLSASVGDRVTITCKASQDVSTAVAWYQQKPGKAPKLLIYSASYRYTGVPSRFSGSGSGTDFTFTISSLQPEDIATYYCQQHYSTPWTFGGGTKVEIKR
notes: Humanized, IgG1-P238K; supernatant sample
B2: Y12XX-hz1 (antibody, human IgG1, kappa, V domains shown)
VH: QVQLVQSGAEVKKPGSSVKVSCKASGYAFTSYWMHWVRQAPGQGLEWMGFINPTTGYSEYNQKFKDRVTITADKSTSTAYMELSSLRSEDTAVYYCARWGLPPFAYWGQGTLVTVSS
VL: DIQMTQSPSSLSASVGDRVTITCKASQDVSTAVAWYQQKPGKAPKLLIYSASYRYTGVPSRFSGSGSGTDFTFTISSLQPEDIATYYCQQHYSTPWTFGGGTKVEIKR
notes: as for B1
B3: Y12XX-hz4 (antibody, human IgG1, kappa, V domains shown)
VH: QVQLVQSGAEVKKPGSSVKVSCKASGYAFTSYWMHWVRQAPGQGLEWMGYINPTTGYSAYNQKFKDKATLTADKSTSTAYMELSSLRSEDTAVYYCARWDPRPFAYWGQGTLVTVSS
VL: DIQMTQSPSSLSASVGDRVTITCKASQDVSTAVAWYQQKPGKAPKLLIYSASYRYTGVPSRFSGSGSGTDFTFTISSLQPEDIATYYCQQHYSTPWTFGGGTKVEIKR
notes: as for B1
B4: Y12XX-hz8 (antibody, human IgG1, kappa, V domains shown)
VH: QVQLVQSGAEVKKPGSSVKVSCKASGYAFTSYWMHWVRQAPGQGLEWMGYINPTTGYSAYNQKFKDKATLTADKSTSTAYMELSSLRSEDTAVYYCARWDARPFAYWGQGTLVTVSS
VL: DIQMTQSPSSLSASVGDRVTITCKASQDVSTAVAWYQQKPGKAPKLLIYSASYRYTGVPSRFSGSGSGTDFTFTISSLQPEDIATYYCQQHYSTPWTFGGGTKVEIKR
notes: as for B1
B5: Y12XX-hz3 (antibody, human IgG1, kappa, V domains shown)
VH: QVQLVQSGAEVKKPGSSVKVSCKASGYAFTSYWMHWVRQRPGQGLEWIGFINPTTGYSEYNQKFKDRVTITADKSTSTAYMELNSLRSEDTAVYYCARWGLPPFAYWGQGTLVTVSS
VL: DIQMTQSPSSLSASVGDRVTITCKASQDVSTAVAWYQQKPGKAPKLLIYSASYRYTGVPSRFSGSGSGTDFTFTISSLQPEDIATYYCQQHYSTPWTFGGGTKVEIKR
notes: as for B1
B6: Y12XX-hz5 (antibody, human IgG1, kappa, V domains shown)
VH: QVQLVQSGAEVKKPGSSVKVSCKASGYAFTSYWMHWVRQRPGQGLEWMGYINPTTGYSAYNQKFKDKATLTADKSTSTAYMELSSLRSEDTAVYYCARWDPRPFAYWGQGTLVTVSS
VL: DIQMTQSPSSLSASVGDRVTITCKASQDVSTAVAWYQQKPGKAPKLLIYSASYRYTGVPSRFSGSGSGTDFTFTISSLQPEDIATYYCQQHYSTPWTFGGGTKVEIKR
notes: as for B1
B7: Y12XX-hz2 (antibody, human IgG1, kappa, V domains shown)
VH: QVQLVQSGAEVKKPGSSVKVSCKASGYAFTSYWMHWVRQRPGQGLEWMGFINPTTGYSEYNQKFKDRVTITADKSTSTAYMELSSLRSEDTAVYYCARWGLPPFAYWGQGTLVTVSS
VL: DIQMTQSPSSLSASVGDRVTITCKASQDVSTAVAWYQQKPGKAPKLLIYSASYRYTGVPSRFSGSGSGTDFTFTISSLQPEDIATYYCQQHYSTPWTFGGGTKVEIKR
notes: as for B1

The assay deals with T1, human-CD40-monomer protein (human, UniProt P25942 21-193, limits assumed).
T1 construct: Soluble monomer generated in house, used as SPR analyte; also called hCD40; hCD40-monomer
T1 sequence (P25942 21-193 limits assumed): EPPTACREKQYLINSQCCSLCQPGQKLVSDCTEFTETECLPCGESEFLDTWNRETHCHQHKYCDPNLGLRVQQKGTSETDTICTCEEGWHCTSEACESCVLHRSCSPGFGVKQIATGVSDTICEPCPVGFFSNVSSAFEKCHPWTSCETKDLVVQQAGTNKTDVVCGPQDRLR
Briefly: SPR, Ab captured on protein A, hCD40 monomer 500 and 50 nM, 1:1 fit; supernatant. As for the experimental part:
Titer analysis was performed using Biolayer Interferometry (BLI) on an Octet RED instrument (Fortebio) by capturing antibodies from supernatant using protein A sensor tips and measuring capture response with respect to a standard curve obtained using a control antibody sample. SPR data were obtained by capturing antibodies on a protein A surface and testing the binding of 500 nM and 50 nM injections of human-CD40 analyte, using a BIAcore™ T200 instrument (GE Healthcare). The kinetic data for the two concentrations of hCD40-monomer were fit to a 1:1 Langmuir model, to yield estimates of the kinetic and affinity values for these interactions, and for comparison of the different molecules.
With B1, the Kd is 5 nM, the koff was found to be 0.00083 s⁻¹ and the kon came to 170000 M⁻¹ s⁻¹.

Turning to B2, binding was put at a Kd of 1.1 nM, the koff was determined as 1.6e-05 s⁻¹ and the on-rate (kon) turned out to be 15000 M⁻¹ s⁻¹.

In turn, B3 registered a Kd of 4.7 nM, a koff of 0.0022 s⁻¹ and a kon of 460000 M⁻¹ s⁻¹.

Turning to B4, the Kd was 210 nM, the koff was 0.15 s⁻¹ and the kon was 720000 M⁻¹ s⁻¹.

As to B5, binding was put at a Kd of 4.5 nM, the koff amounted to 6.7e-05 s⁻¹ and the kon came to 15000 M⁻¹ s⁻¹.

The molecule B6 showed a Kd of 7.2 nM, a koff of 0.0025 s⁻¹ and a kon of 350000 M⁻¹ s⁻¹.

Consider B7, for which the Kd was determined as 4.1 nM, the koff came to 7.1e-05 s⁻¹ and the kon was 17000 M⁻¹ s⁻¹.
